According to patent publication US20250066503A1, “CELL INJURY INDUCING THERAPEUTIC DRUG FOR USE IN CANCER THERAPY” (CHUGAI SEIYAKU KABUSHIKI KAISHA, priority 2016, published 2025):
Residue numbers refer to the chain shown, from its start.

B1: TR01H067-E22Hh/none-Hi-Kn010G3/L0262-k0 (antibody, V domains shown)
VH: QVQLVESGGGLVQPGRSLRLSCAASGFTFSNAWMHWVRQAPGKGLEWVAQIKDKSQNYATYYAESVKGRFTISRDDSKNSLYLQMNSLKTEDTAVYYCRYVHYAASYGVDAWGQGTTVTVSS
VL: DIVMTQSPLSLPVTPGEPASISCRSSQPPVHSNRNTYLHWYQQKPGQAPRLLIYKVSNRFSGVPDRFSGSGSGTDFTLKISRVEAEDVGVYYCAQGTQVPYTFGQGTKLEIK
notes: one-arm
B2: TR01H062-E22Hh/none-Hi-Kn010G3/L0000-k0 (antibody, V domains shown)
VH: B1 VH with D75A, L81I
VL: DIVMTQSPLSLPVTPGEPASISCRSSQSLVHSNRNTYLHWYQQKPGQAPRLLIYKVSNRFSGVPDRFSGSGSGTDFTLKISRVEAEDVGVYYCGQGTQVPYTFGQGTKLEIKR
notes: one-arm
B3: TR01H067-E22Hh/none-Hi-Kn010G3/TR01L016-k0 (antibody, V domains shown)
VH: B1 VH
VL: B1 VL with P28S, Q42L, A48S, R50Q, A94Y
notes: one-arm
B4: TR01H082-E22Hh/none-Hi-Kn010G3/L0270-k0 (antibody, V domains shown)
VH: B1 VH with S106G
VL: B1 VL with P28S, P29L, N35Q, A94G
notes: one-arm
B5: TR01H084-E22Hh/none-Hi-Kn010G3/L0272-k0 (antibody, V domains shown)
VH: B1 VH with L11V, R16G, D75A, L81I, S106G, A111I
VL: B1 VL with P29L, N35Q, A94G
notes: one-arm
B6: CE115HA178-G1dh//-Hi-Kn010G3/L0000-k0 (antibody, V domains shown)
VH: B1 VH with D53A, Q56N, L81I, A104G, S106Y, D110Q
VL: B2 VL
notes: one-arm
B7: TR01H014-E22Hh/none-Hi-Kn010G3/L0000-k0 (antibody, V domains shown)
VH: B1 VH with D53G, Q56N, E64P, D75A, L81I, A104G, S106Y, A111I
VL: B2 VL
notes: one-arm
B8: TR01H084-E22Hh/none-Hi-Kn010G3/L0270-k0 (antibody, V domains shown)
VH: B1 VH with L11V, R16G, D75A, L81I, S106G, A111I
VL: B1 VL with P28S, P29L, N35Q, A94G
notes: one-arm
B9: TR01H006-E22Hh/none-Hi-Kn010G3/L0000-k0 (antibody, V domains shown)
VH: B1 VH with D53A, D75A, L81I, A104G, S106Y, A111I
VL: B2 VL
notes: one-arm
B10: TR01H067-E22Hh/none-Hi-Kn010G3/TR01L018-k0 (antibody, V domains shown)
VH: B1 VH
VL: B1 VL with R24Q, S25A, Q27E, P28S, Q42L, A48S, R50Q, A94G
notes: one-arm
B11: TR01H003-E22Hh//-Hi-Kn010G3/L0000-k0 (antibody, V domains shown)
VH: B1 VH with L11V, D53A, Q56N, Y100R, A104G, S106Y
VL: B2 VL
notes: one-arm
B12: TR01H082-E22Hh/none-Hi-Kn010G3/L0264-k0 (antibody, V domains shown)
VH: B1 VH with S106G
VL: B1 VL with S25P, P28S
notes: one-arm
B13: TR01H082-E22Hh/none-Hi-Kn010G3/L0267-k0 (antibody, V domains shown)
VH: B1 VH with S106G
VL: B1 VL with S25P, P28S, A94V
notes: one-arm
B14: TR01H010-E22Hh/none-Hi-Kn010G3/L0000-k0 (antibody, V domains shown)
VH: B1 VH with D53A, Q56N, D75A, L81I, A104S, S106Y, A111I
VL: B2 VL
notes: one-arm
B15: TR01H084-E22Hh/none-Hi-Kn010G3/L0271-k0 (antibody, V domains shown)
VH: B1 VH with L11V, R16G, D75A, L81I, S106G, A111I
VL: B1 VL with N35Q, A94G
notes: one-arm
B16: TR01H082-E22Hh/none-Hi-Kn010G3/TR01L018-k0 (antibody, V domains shown)
VH: B1 VH with S106G
VL: B1 VL with R24Q, S25A, Q27E, P28S, Q42L, A48S, R50Q, A94G
notes: one-arm
B17: TR01H082-E22Hh/none-Hi-Kn010G3/L0271-k0 (antibody, V domains shown)
VH: B1 VH with S106G
VL: B1 VL with N35Q, A94G
notes: one-arm
B18: CE115HA124-E22Hh//-Hi-Kn010G3/L0000-k0 (antibody, V domains shown)
VH: B1 VH with L11V, D53A, K54L, Q56N, A104G, S106Y
VL: B2 VL
notes: one-arm
B19: TR01H082-E22Hh/none-Hi-Kn010G3/L0263-k0 (antibody, V domains shown)
VH: B1 VH with S106G
VL: B1 VL with P28S, L38I
notes: one-arm
B20: TR01H007-E22Hh/none-Hi-Kn010G3/L0000-k0 (antibody, V domains shown)
VH: B1 VH with D53S, Q56N, D75A, L81I, A104G, S106Y, A111I
VL: B2 VL
notes: one-arm
B21: CE115HA121-E22Hh/-Hi-Kn010G3/L0000-k0 (antibody, V domains shown)
VH: B1 VH with L11V, Q50L, D53A, Q56N, A104G, S106Y
VL: B2 VL
notes: one-arm
B22: TR01H008-E22Hh/none-Hi-Kn010G3/L0000-k0 (antibody, V domains shown)
VH: B1 VH with D53G, Q56N, D75A, L81I, A104G, S106Y, A111I
VL: B2 VL
notes: one-arm
B23: TR01H011-E22Hh/none-Hi-Kn010G3/L0000-k0 (antibody, V domains shown)
VH: B1 VH with D53A, Q56N, D75A, L81I, A104G, A111I
VL: B2 VL
notes: one-arm
B24: TR01H071-E22Hh/none-Hi-Kn010G3/L0215-k0 (antibody, V domains shown)
VH: B1 VH with Q56N, D75A, L81I, A111I
VL: B1 VL with L38I, A94G
notes: one-arm
B25: TR01H082-E22Hh/none-Hi-Kn010G3/TR01L023-k0 (antibody, V domains shown)
VH: B1 VH with S106G
VL: B1 VL with P28S, Q42L, A48S, R50Q, A94T
notes: one-arm
B26: TR01H071-E22Hh/none-Hi-Kn010G3/L0226-k0 (antibody, V domains shown)
VH: B1 VH with Q56N, D75A, L81I, A111I
VL: B1 VL with P28S, L38I, A94I
notes: one-arm
B27: TR01H082-E22Hh/none-Hi-Kn010G3/L0262-k0 (antibody, V domains shown)
VH: B1 VH with S106G
VL: B1 VL
notes: one-arm
B28: TR01H082-E22Hh/none-Hi-Kn010G3/L0272-k0 (antibody, V domains shown)
VH: B1 VH with S106G
VL: B1 VL with P29L, N35Q, A94G
notes: one-arm
B29: TR01H082-E22Hh/none-Hi-Kn010G3/L0266-k0 (antibody, V domains shown)
VH: B1 VH with S106G
VL: B1 VL with A94V
notes: one-arm
B30: TR01H084-E22Hh/none-Hi-Kn010G3/L0262-k0 (antibody, V domains shown)
VH: B1 VH with L11V, R16G, D75A, L81I, S106G, A111I
VL: B1 VL
notes: one-arm
B31: TR01H082-E22Hh/none-Hi-Kn010G3/L0259-k0 (antibody, V domains shown)
VH: B1 VH with S106G
VL: B1 VL with P28S, L38I, A94T
notes: one-arm
B32: TR01H012-E22Hh/none-Hi-Kn010G3/L0000-k0 (antibody, V domains shown)
VH: B1 VH with D53A, Q56N, D75A, L81I, A104Y, A105Y, A111I
VL: B2 VL
notes: one-arm
B33: TR01H013-E22Hh/none-Hi-Kn010G3/L0000-k0 (antibody, V domains shown)
VH: B1 VH with D53G, D75A, L81I, A104G, S106Y, A111I
VL: B2 VL
notes: one-arm
B34: TR01H071-E22Hh/none-Hi-Kn010G3/L0200-k0 (antibody, V domains shown)
VH: B1 VH with Q56N, D75A, L81I, A111I
VL: B1 VL with S25P, P28S, A94G
notes: one-arm
B35: CE115HA192-E22Hh//-Hi-Kn010G3/L0000-k0 (antibody, V domains shown)
VH: B1 VH with L11V, D53A, Q56N, A104Y, S106Y
VL: B2 VL
notes: one-arm
B36: TR01H004-E22Hh//-Hi-Kn010G3/L0000-k0 (antibody, V domains shown)
VH: B1 VH with L11V, D53A, Q56N, Y100R, A104Y, A105Y, S106Y
VL: B2 VL
notes: one-arm; also called TR01H004-E22Hh//-Hi-Kn010G3/10000-ko
B37: TR01H082-E22Hh/none-Hi-Kn010G3/TR01L017-k0 (antibody, V domains shown)
VH: B1 VH with S106G
VL: B1 VL with P28S, L38I, H39Q, Q42L, A48S, R50Q, A94Y
notes: one-arm
B38: TR01H082-E22Hh/none-Hi-Kn010G3/L0260-k0 (antibody, V domains shown)
VH: B1 VH with S106G
VL: B1 VL with S25P, P28S, A94T
notes: one-arm
B39: TR01H082-E22Hh/none-Hi-Kn010G3/L0258-k0 (antibody, V domains shown)
VH: B1 VH with S106G
VL: B1 VL with A94T
notes: one-arm
B40: CE115HA177-G1dh//-Hi-Kn010G3/L0000-k0 (antibody, V domains shown)
VH: B1 VH with D53A, Q56N, D75A, L81I, A104G, S106Y
VL: B2 VL
notes: one-arm
B41: CE115HA252-E22Hh//-Hi-Kn010G3/L0000-k0 (antibody, V domains shown)
VH: B1 VH with L11V, D53A, Q56N, A59K, T60K, A104Y, A105Y, S106Y
VL: B2 VL
notes: one-arm
B42: TR01H082-E22Hh/none-Hi-Kn010G3/L0268-k0 (antibody, V domains shown)
VH: B1 VH with S106G
VL: B1 VL with P28S, L38I, H39Q, A94V
notes: one-arm
B43: CE115HA179-G1dh//-Hi-Kn010G3/L0000-k0 (antibody, V domains shown)
VH: B1 VH with D53A, Q56N, D75A, L81I, A104G, S106Y, D110Q
VL: B2 VL
notes: one-arm
B44: TR01H067-E22Hh/none-Hi-Kn010G3/TR01L015-k0 (antibody, V domains shown)
VH: B1 VH
VL: B1 VL with P28S, Q42L, A48S, R50Q, A94G
notes: one-arm
B45: TR01H081-E22Hh/none-Hi-Kn010G3/L0262-k0 (antibody, V domains shown)
VH: B1 VH with D75A, L81I, S106G, A111I
VL: B1 VL
notes: one-arm
B46: CE115HA180-G1dh//-Hi-Kn010G3/L0000-k0 (antibody, V domains shown)
VH: B1 VH with L11V, D53A, Q56N, D75A, A104G, S106Y, D110Q
VL: B2 VL
notes: one-arm
B47: TR01H083-E22Hh/none-Hi-Kn010G3/L0262-k0 (antibody, V domains shown)
VH: B1 VH with Q56N, D75A, L81I, S106G, A111I
VL: B1 VL
notes: one-arm
B48: TR01H009-E22Hh/none-Hi-Kn010G3/L0000-k0 (antibody, V domains shown)
VH: B1 VH with D53A, Q56N, E64P, D75A, L81I, A104G, S106Y, A111I
VL: B2 VL
notes: one-arm

target: T1, soluble human CD3 epsilon chain (human, UniProt P07766 23-126); experiment: SPR
T1 construct: also called CD3ε
T1 sequence (P07766 23-126 limits assumed): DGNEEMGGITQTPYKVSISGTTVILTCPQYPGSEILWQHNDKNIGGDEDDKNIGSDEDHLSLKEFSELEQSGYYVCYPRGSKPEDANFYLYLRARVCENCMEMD

| Kd [nM] | Binder |
| --- | --- |
| 49.2 | B1 |
| 31.3 | B2 |
| 10.9 | B3 |
| 74.2 | B4 |
| 31 | B5 |
| 10.9 | B6 |
| 38.7 | B7 |
| 27.6 | B8 |
| 23 | B9 |
| 52.6 | B10 |
| 40.3 | B11 |
| 34.4 | B12 |
| 22.9 | B13 |
| 37.3 | B14 |
| 27.6 | B15 |
| 47.2 | B16 |
| 68.2 | B17 |
| 143 | B18 |
| 30.9 | B19 |
| 21.7 | B20 |
| 67.6 | B21 |
| 42.2 | B22 |
| 37.1 | B23 |
| 9.51 | B24 |

| Kd [nM] | Binder |
| --- | --- |
| 42.5 | B25 |
| 25.1 | B26 |
| 39.8 | B27 |
| 74.4 | B28 |
| 22.9 | B29 |
| 8.51 | B30 |
| 50.7 | B31 |
| 7.94 | B32 |
| 49.4 | B33 |
| 6.13 | B34 |
| 50.5 | B35 |
| 135 | B36 |
| 109 | B37 |
| 45.3 | B38 |
| 47 | B39 |
| 35.5 | B40 |
| 9.48 | B41 |
| 136 | B42 |
| 8.35 | B43 |
| 86.4 | B44 |
| 5.76 | B45 |
| 16.8 | B46 |
| 2.45 | B47 |
| 31.5 | B48 |
